Measurements reported in patent publication US11547739B2, “Peptides and methods related to ICOS signaling” (priority 2015, dated 2023).

Key:
Tbk1 transcript = test: In vivo knockdown efficiency by quantitative PCR in sorted transduced cells; set-up: species or system mouse; conditions: sorted shTbk1+CD4+ T cells
Procedure: Isolation of mRNA, cDNA synthesis and real-time PCR. Total RNA was extracted from sorted CD4^+ Ametrine- and CD4^+ Ametrine^+ cells using the RNeasy kit (Qiagen). RNA was used to synthesize cDNA by the SuperScript III FirstStrand cDNA synthesis kit (Life Technologies). […]; Relative gene expression levels were determined in triplicates, calculated using the 2-° Act method and normalized to the level of ACTB.

TBK1 [1] = biological target: T1, TBK1 (Homo sapiens, UniProt Q9UHD2); test: Anti-FLAG immunoprecipitation of WT or mutated TRAF2/TRAF3 in HEK293T cells; type: binding; set-up: endogenous in cells; conditions: FLAG-tagged TRAF in HEK293T cells
T1 sequence (Q9UHD2 1-729): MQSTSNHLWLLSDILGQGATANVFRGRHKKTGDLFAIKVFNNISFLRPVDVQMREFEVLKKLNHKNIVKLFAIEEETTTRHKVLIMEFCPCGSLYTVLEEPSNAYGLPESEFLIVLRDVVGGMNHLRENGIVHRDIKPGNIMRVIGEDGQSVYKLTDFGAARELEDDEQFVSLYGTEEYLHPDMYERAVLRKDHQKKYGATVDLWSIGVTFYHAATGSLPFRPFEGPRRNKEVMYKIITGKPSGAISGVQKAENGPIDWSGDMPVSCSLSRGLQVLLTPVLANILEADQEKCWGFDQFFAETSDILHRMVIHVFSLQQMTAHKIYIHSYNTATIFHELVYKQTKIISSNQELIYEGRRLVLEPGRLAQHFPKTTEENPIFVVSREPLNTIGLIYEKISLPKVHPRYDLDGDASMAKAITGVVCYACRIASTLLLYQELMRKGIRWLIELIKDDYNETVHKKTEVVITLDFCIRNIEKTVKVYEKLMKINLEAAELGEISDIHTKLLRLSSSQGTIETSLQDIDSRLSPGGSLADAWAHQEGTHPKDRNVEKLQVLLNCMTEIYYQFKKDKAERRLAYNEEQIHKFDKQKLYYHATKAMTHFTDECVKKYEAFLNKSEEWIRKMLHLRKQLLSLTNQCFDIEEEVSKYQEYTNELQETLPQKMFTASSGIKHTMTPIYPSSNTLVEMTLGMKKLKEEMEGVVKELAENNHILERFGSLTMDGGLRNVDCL
Procedure: (§1) Immunoprecipitation and immunoblotting. The human leukemic Jurkat T cell line, JTAg, was previously described (Li, J et al. J Immunol 2013, 191(1): 200-207; Rolf J et al., J Immunol 2010, 185(7): 4042-4052) and the HEK 293T cell line was obtained from ATCC. These cell lines have not been recently STR profiled but tested negative for mycoplasma contamination. JTAg cells in logarithmic growth phase were transfected with plasmid DNAs by electroporation and incubated for 24 hours. Transfection of HEK293T cells was carried out via liposomes-mediated transfection with plasmid DNAs. For experiments using primary mouse T cells, purified CD4+ T cells were activated in vitro with anti-mouse CD3 (clone 145-2C11) and CD28 (clone 37.51) for 48 hours prior to resting in the presence of IL-2 for another 48 hours. Transfected JTAg cells and preactivated mouse CD4^+ T cells were stimulated with anti-CD3 and anti-ICOS (clone C398.4A) monoclonal antibodies (mAbs) in the presence of a cross-linking antibody (Ab) for 2 minutes. […] The intensity of bands was measured using the ImageJ software (NIH). To determine the ratio of TBK1 to p85a, the band intensity on IP blots and WCL blots were measured for TBK1 and p85a, respectively, and the ratio was expressed as (IP TBK1)/(WCL TBK1): (IP p85a)/(WCL p85a).

Tfh cells = conditions: mouse, in vivo
TBK1 [2] = biological target: T1, TBK1; test: ICOS immunoprecipitation and immunoblotting in transfected Jurkat (JTAg) T cells; type: binding; set-up: endogenous in cells; host or cells: Jurkat JTAg T cells transfected with ICOS plasmids; conditions: Jurkat (JTAg) cells stimulated with anti-CD3 plus -ICOS mAbs
Procedure: as §1

[3] = system: GC B cells and plasma cells; type: in vivo, mouse; conditions: KLH-gp61 in alum, 10 d

## shTbk1 (guide AAGACATAAAGTGCTTATTATG; expressed or natural sequence)
Tbk1 transcript
  Tbk1 transcript reduced: ~80%

B1: TRAF3 (protein, UniProt Q13114 1-568, looked up)
TNF receptor-associated …: MESSKKMDSPGALQTNPPLKLHTDRSAGTPVFVPEQGGYKEKFVKTVEDKYKCEKCHLVLCSPKQTECGHRFCESCMAALLSSSSPKCTACQESIVKDKVFKDNCCKREILALQIYCRNESRGCAEQLMLGHLLVHLKNDCHFEELPCVRPDCKEKVLRKDLRDHVEKACKYREATCSHCKSQVPMIALQKHEDTDCPCVVVSCPHKCSVQTLLRSELSAHLSECVNAPSTCSFKRYGCVFQGTNQQIKAHEASSAVQHVNLLKEWSNSLEKKVSLLQNESVEKNKSIQSLHNQICSFEIEIERQKEMLRNNESKILHLQRVIDSQAEKLKELDKEIRPFRQNWEEADSMKSSVESLQNRVTELESVDKSAGQVARNTGLLESQLSRHDQMLSVHDIRLADMDLRFQVLETASYNGVLIWKIRDYKRRKQEAVMGKTLSLYSQPFYTGYFGYKMCARVYLNGDGMGKGTHLSLFFVIMRGEYDALLPWPFKQKVTLMLMDQGSSRRHLGDAFKPDPNSSSFKKPTGEMNIASGCPVFVAQTVLENGTYIKDDTIFIKVIVDTSDLPDP
TBK1 [1]
  interaction with TBK1: interacted strongly

B2: WT ICOS (protein)
chain: EINGSANYEMFIFHNGGVQILCKYPDIVQQFKMQLLKGGQILCDLTKTKGSGNTVSIKSLKFCHSQLSNNSVSFFLYNLDHSHANYYFCNLSIFDPPPFKVTLTGGYLHIYESQLCCQLKFWLPIGCAAFVVVCILGCILICWLTKKKYSSSVHDPNGEYMFMRAVNTAKKSRLTDVTL
Tfh cells
  CXCR5+SLAMlo Tfh cell population: differentiated
  differentiation of CXCR5+PD1hi GC Tfh cells: restored
  nascent CXCR5+Bcl6+ Tfh cells: able to differentiate
TBK1 [2]
  interaction with endogenous TBK1 in ICOS IPs: interacted strongly
[3]
  B cell differentiation (Fas+GL7+ GC B cells and class-switched IgD-CD138+ plasma cells): supported the differentiation

B3: WT TRAF2 (protein)
chain: MAAASVTPPGSLELLQPGFSKTLLGTKLEAKYLCSACRNVLRRPFQAQCGHRYCSFCLASILSSGPQNCAACVHEGIYEEGISILESSSAFPDNAARREVESLPAVCPSDGCTWKGTLKEYESCHEGRCPLMLTECPACKGLVRLGEKERHLEHECPERSLSCRHCRAPCCGADVKAHHEVCPKFPLTCDGCGKKKIPREKFQDHVKTCGKCRVPCRFHAIGCLETVEGEKQQEHEVQWLREHLAMLLSSVLEAKPLLGDQSHAGSELLQGCESLEKKTATFENIVCVLNREVERVAMTAEACSRQHRLDQDKIEAPSSKVQQLERSIGLKDLAMADLEQKVSEMEASTYDGVFIWKISDFARKRQEAVAGRIPAIFSPAFYTRRYGYKMCLRIYLNGDGTGRGTHLSLFFVVMKGPNDALLRWPFNQKVTLMLLDQNNREHVIDAFRPDVTSSSFQRPVNDMNIASGCPLFCPVSKMEAKDSYVRDDAIFIKAIVDLTGL
modifications: left off: small tags and cut ends
TBK1 [1]
  interaction with TBK1: interacted strongly
